Assay results as given in patent publication EP4663202A1 (Innovent Biologics (Suzhou) Co., Ltd., dated 2025).

Columns and labels:
[1] = molecular target: T1, human VEGFC (human, UniProt P49767 103-227, limits assumed); assay: biolayer interferometry (ForteBio), monovalent antigen-antibody binding, 30 C
T1 construct: also called hVEGFC; VEGFC-biotin (biotin-labeled human VEGFC)
T1 sequence (looked up): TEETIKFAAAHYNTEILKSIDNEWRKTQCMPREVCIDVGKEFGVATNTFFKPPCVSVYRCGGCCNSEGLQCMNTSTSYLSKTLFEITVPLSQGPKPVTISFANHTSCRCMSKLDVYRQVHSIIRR

[2] = molecular target: T1, human VEGFC; assay: cell-based or functional assay

- Kd [1]: 5.7 nM
- koff [1]: 0.00036 s⁻¹
- kon [1]: 63100 M⁻¹ s⁻¹
- IC50 of inhibition of VEGFC-induced activation of the KDR signaling pathway (NFAT-RE-luc2P/KDR HEK293 reporter cells) [2]: ~4.46 nM
B1: anti-VEGFC antibody am63G12.1-5G8-18B9 (VHH)
VHH: EVQLVESGGGLVQPGGSLRLSCAASGSSFSPYAMGWYRQAPGKQRELVSATSSGGFTLYADSVKGRFTISRDNSKNTVYLQMNSLRAEDTAVYYCYTYYREYDPEMYWGQGTQVTVSS
notes: also called anti-VEGFC humanized VHH antibody
- IC50 of inhibition of hVEGFC-induced BaF3-FLT4 survival and proliferation (CCK-8) [2]: 0.792 nM
